Laboratory results taken from patent publication US20260022175A1 (Chugai, published 2026).
Like-named read-outs stand apart in the source and are kept apart here. Each block holds one binder with its values, some of them ahead of it.

What was measured:
[1] = biological target: T1, human FcγRIIb extracellular domain with C-terminal His-tag (human, UniProt P31994 43-217); assay: SPR; binding amount divided by that of 04H1389-G1m/04L1615-k0MT
T1 construct: extracellular domain; also called hFcγR IIb
T1 sequence (looked up): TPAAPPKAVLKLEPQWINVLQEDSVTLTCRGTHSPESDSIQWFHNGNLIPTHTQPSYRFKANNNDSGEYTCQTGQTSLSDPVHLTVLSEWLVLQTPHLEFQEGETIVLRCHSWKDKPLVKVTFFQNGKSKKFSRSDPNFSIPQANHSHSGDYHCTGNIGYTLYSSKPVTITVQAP

[2] = biological target: T2, human FcRn (human, UniProt P55899 24-290; P61769 21-119); assay: SPR Biacore T200, Ab captured via Fab-kappa, pH 6.0, steady state
T2 construct: Prepared by the method of WO 2010/107110; also called hFcRn

[3] = biological target: T3, human FcγRIIa R allotype extracellular domain with C-terminal His-tag (human, UniProt P12318 34-217); assay: SPR; KD of 04H1389-G1m/04L1615-k0MT divided by KD of variant
T3 construct: extracellular domain; also called hFcγR IIa R
T3 sequence (looked up): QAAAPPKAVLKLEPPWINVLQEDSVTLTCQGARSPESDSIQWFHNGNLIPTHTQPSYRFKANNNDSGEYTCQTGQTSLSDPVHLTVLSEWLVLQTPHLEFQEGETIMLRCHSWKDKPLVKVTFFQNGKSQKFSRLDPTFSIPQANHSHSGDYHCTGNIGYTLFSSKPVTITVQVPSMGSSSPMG

[4] = biological target: T4, human FcγRIa extracellular domain with C-terminal His-tag (human, UniProt P12314 16-292); assay: as above
T4 construct: extracellular domain; also called hFcγR Ia; hFcγRIa

[5] = biological target: T5, human FcγRIIa H allotype extracellular domain with C-terminal His-tag (human, UniProt P12318 34-217); assay: as above
T5 construct: extracellular domain; also called hFcγR IIa H
T5 sequence (looked up): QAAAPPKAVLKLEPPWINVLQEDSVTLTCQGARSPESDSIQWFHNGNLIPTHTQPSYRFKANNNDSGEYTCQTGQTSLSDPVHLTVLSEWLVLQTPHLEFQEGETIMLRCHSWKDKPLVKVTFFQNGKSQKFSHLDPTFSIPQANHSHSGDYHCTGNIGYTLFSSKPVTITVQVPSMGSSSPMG

[6] = biological target: T6, human FcγRIIIa V allotype extracellular domain with C-terminal His-tag (human, UniProt P08637 17-208); assay: as above
T6 construct: extracellular domain; also called hFcγR IIIa V

[7] = biological target: T2, human FcRn; assay: as above
[8] = biological target: T6, human FcγRIIIa V allotype extracellular …; assay: SPR Biacore T200, Ab captured via Fab-kappa, pH 7.4, 25C, steady state model
Protocol: (§1) The interaction between the generated antibodies and human FcγRs was analyzed using Biacore T200. 50 mM Na-Phosphate, 150 mM NaCl, 0.05% Tween20 (pH 7.4) was used as the running buffer, and the assay was performed at 25° C. For the sensor chip, Series S SA (GE Healthcare) chips onto which CaptureSelect Human Fab-kappa Kinetics Biotin Conjugate (Thermo Fisher Scientific) was immobilized were used. The antibodies of interest were captured onto these chips and each FcγR diluted in the running buffer was allowed to interact with them. Chips were regenerated with 10 mM Glycine-HCl (pH 1.5) and 25 mM NaOH, and assay was performed by repeatedly capturing antibodies. The dissociation constants KD (mol/L) for FcγRs of each antibody were calculated using Biacore T200 Evaluation Software 2.0, and using the 1:1 Langmuir binding model for FcγRIa and FcγRIIIa and the steady state affinity model for FcγRIIa. For FcγRIIb, the binding amount of FcγRIIb per unit amount of antibody was calculated by correcting the binding amount of FcγRIIb obtained from the sensorgram obtained by the measurement with the amount of antibody captured onto the chip surface.

[9] = biological target: T1, human FcγRIIb extracellular domain with …; assay: SPR; FcγRIIb bound amount per unit captured Ab
[10] = biological target: T3, human FcγRIIa R allotype extracellular …; assay: SPR Biacore T200, Ab captured via Fab-kappa, pH 7.4, 25C;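 also: each FcγR flowed as analyte over the captured antibodies, KD derived by 1:1 Langmuir or steady-state affinity fitting depending on the receptor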
Protocol: as §1

[11] = biological target: T4, human FcγRIa extracellular domain with …; assay: as above
Protocol: as §1

[12] = biological target: T5, human FcγRIIa H allotype extracellular …; assay: as above
Protocol: as §1

[13] = biological target: T7, human CTLA4 (human); assay: SPR Biacore T200, 37C, antibody captured, ATP 1 uM
T7 construct: also called hCTLA4; hCTLA4-His-BAP
Protocol: (§2) Biacore T200 was used to measure the binding of the generated antibodies to human CTLA4. 20 mM ACES (pH 7.4), 150 mM NaCl, 2 mM MgCl₂, 0.05% Tween 20 with ATP added to the desired concentration was used as the running buffer, and the assay was performed at 37° C. First, Protein G (CALBIOCHEM) was immobilized onto a Series S Sensor Chip CM3 (GE Healthcare), and the antibodies were captured by interacting an antibody solution prepared in an ATP-free running buffer with the chip. Next, by interacting with a human CTLA4 solution prepared in a running buffer containing ATP to the desired concentration, or a human CTLA4 solution prepared in a running buffer containing no ATP, the binding ability of the antibody to human CTLA4 in the presence or absence of ATP was evaluated. Chips were regenerated with 25 mM NaOH and 10 mM Glycine-HCl (pH 1.5), and assay was performed by repeatedly capturing antibodies. The dissociation constant of each antibody for CTLA4 was calculated using Biacore T200 Evaluation Software 2.0. Specifically, the binding rate constant ka (L/mol/s) and the dissociation rate constant kd (1/s) were calculated by global fitting of the sensorgrams obtained by the measurement, using a 1:1 Langmuir binding model. The dissociation constant KD (mol/L) was calculated from those values. Alternatively, the dissociation constant KD (mol/L) was calculated by the steady state model. In addition, the binding amount of CTLA4 per unit amount of antibody was calculated by correcting the amount of CTLA4 bound as calculated from the sensorgram obtained by the assay with the amount of antibody captured onto the chip surface.

[14] = biological target: T7, human CTLA4; assay: SPR Biacore T200, 37C, antibody captured, no ATP; no ATP
Protocol: Biacore T200 was used to measure the binding of the generated antibodies to human CTLA4. 20 mM ACES (pH 7.4), 150 mM NaCl, 2 mM MgCl₂, 0.05% Tween 20 with ATP added to the desired concentration was used as the running buffer, and the assay was performed at 37° C. First, Protein G (CALBIOCHEM) was immobilized onto a Series S Sensor Chip CM3 (GE Healthcare), and the antibodies were captured by interacting an antibody solution prepared in an ATP-free running buffer with the chip. Next, by interacting with a human CTLA4 solution prepared in a running buffer containing ATP to the desired concentration, or a human CTLA4 solution prepared in a running buffer containing no ATP, the binding ability of the antibody to human CTLA4 in the presence or absence of ATP was evaluated. Chips were regenerated with 25 mM NaOH and 10 mM Glycine-HCl (pH 1.5), and assay was performed by repeatedly capturing antibodies. The dissociation constant of each antibody for CTLA4 was calculated using Biacore T200 Evaluation Software 2.0. Specifically, the binding rate constant ka (L/mol/s) and the dissociation rate constant kd (1/s) were calculated by global fitting of the sensorgrams obtained by the measurement, using a 1:1 Langmuir binding model. The dissociation constant KD (mol/L) was calculated from those values. Alternatively, the dissociation constant KD (mol/L) was calculated by the steady state model. […]

[15] = biological target: T7, human CTLA4; assay: SPR Biacore T200, 37C, antibody captured, ATP 10 uM
Protocol: as §2
(§3) The binding ability of the generated variants to human CTLA4 in the presence of ADP or AMP was evaluated by Biacore T200 and compared with the binding ability in the presence of ATP.

[16] = biological target: T8, mouse CTLA4 extracellular region linked with a His-tag (mCTLA4-His) (mouse, UniProt P09793 36-161); assay: SPR Biacore T200, 37C, antibody captured, ATP 1 uM
Protocol: as §2
(§4) Next, the binding ability of some variants to mouse CTLA4 and cynomolgus monkey CTLA4 was evaluated.

[17] = biological target: T9, cynomolgus monkey CTLA4 (CyCTLA4-His-BAP) (cynomolgus monkey); assay: SPR Biacore T200, 37C, antibody captured, ATP 1 uM
Protocol: as §2, §4

[18] = biological target: T7, human CTLA4; assay: SPR Biacore T200, 37C, antibody captured, ATP 1 uM; remark: listed apart in the source
Protocol: as §2, §4

[19] = biological target: T7, human CTLA4; assay: SPR Biacore T200, 37C, antibody captured, ATP 10 uM; remark: listed apart in the source
Protocol: as §2

[20] = biological target: T8, mouse CTLA4 extracellular region linked …; assay: SPR Biacore T200, 37C, antibody captured, ATP 100 uM
[21] = biological target: T9, cynomolgus monkey CTLA4 …; assay: as above
[22] = biological target: T7, human CTLA4; assay: as above
[23] = biological target: T8, mouse CTLA4 extracellular region linked …; assay: SPR Biacore T200, 37C, antibody captured, ATP 10 uM
[24] = biological target: T9, cynomolgus monkey CTLA4 …; assay: as above
[25] = biological target: T7, human CTLA4; assay: as above; remark: listed apart in the source
[26] = biological target: T7, human CTLA4; assay: SPR Biacore T200, 37C, antibody captured, AMP 10 uM
[27] = biological target: T7, human CTLA4; assay: SPR Biacore T200, 37C, antibody captured, ADP 10 uM;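 also: antibodies held on a Protein G CM3 chip, human CTLA4 as analyte in ACES pH 7.4 buffer, rates from a global 1:1 Langmuir fit, Kd from rates or steady state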
Protocol: as §2, §3

[28] = biological target: T1, human FcγRIIb extracellular domain with …; assay: SPR; binding amount divided by that of 04H1656-G1m/04L1610-lam1
[29] = biological target: T2, human FcRn; assay: SPR Biacore T200, captured Ab, pH 6.0, steady state
Protocol: The interaction between the generated antibodies and human FcRn was analyzed by the following method using Biacore T200. 50 mM Na-Phosphate, 150 mM NaCl, 0.05% Tween20 (pH 6.0) was used as the running buffer, and the assay was performed at 25° C. For the sensor chip, Series S SA (GE Healthcare) chips onto which CaptureSelect Human Fab-lambda Kinetics Biotin Conjugate (Thermo Fisher Scientific) was immobilized were used. The antibodies of interest were captured onto these chips and FcRn diluted in the running buffer was allowed to interact with them. Chips were regenerated with 10 mM Glycine-HCl (pH 1.5) and 25 mM NaOH, and assay was performed by repeatedly capturing antibodies. The dissociation constant for FcRn of each antibody was calculated using the steady state model, using Biacore T200 Evaluation Software 2.0.

[30] = biological target: T1, human FcγRIIb extracellular domain with …; assay: SPR; FcγRIIb bound amount per unit captured Ab; remark: listed apart in the source
Protocol: (§5) The interaction between the generated antibodies and human FcγRs was analyzed by the following method using Biacore T200. 50 mM Na-Phosphate, 150 mM NaCl, 0.05% Tween20 (pH 7.4) was used as the running buffer, and the assay was performed at 25° C. For the sensor chips, Series S SA (GE Healthcare) chips onto which CaptureSelect Human Fab-lambda Kinetics Biotin Conjugate (Thermo Fisher Scientific) was immobilized were used. The antibodies of interest were captured onto these chips and each FcγR diluted in the running buffer was allowed to interact with them. Chips were regenerated with 10 mM Glycine-HCl (pH 1.5) and 25 mM NaOH, and assay was performed by repeatedly capturing antibodies. The dissociation constants KD (mol/L) for FcγRs of each antibody were calculated using Biacore T200 Evaluation Software 2.0, using the 1:1 Langmuir binding model for FcγRIa and FcγRIIIa and the steady state affinity model for FcγRIIa. For FcγRIIb, the binding amount of FcγRIIb per unit amount of antibody was calculated by correcting the binding amount of FcγRIIb obtained from the sensorgram obtained by the measurement with the amount of antibody captured onto the chip surface.

[31] = biological target: T6, human FcγRIIIa V allotype extracellular …; assay: SPR Biacore T200, captured Ab, pH 7.4, steady state model
Protocol: as §5

[32] = biological target: T3, human FcγRIIa R allotype extracellular …; assay: SPR; KD of 04H1656-G1m/04L1610-lam1 divided by KD of variant
[33] = biological target: T4, human FcγRIa extracellular domain with …; assay: as above
[34] = biological target: T10, human FcγRIIIa F allotype extracellular domain with C-terminal His-tag (human, UniProt P08637 17-208); assay: as above
T10 construct: extracellular domain; also called hFcγR IIIa F

[35] = biological target: T5, human FcγRIIa H allotype extracellular …; assay: as above
[36] = biological target: T6, human FcγRIIIa V allotype extracellular …; assay: as above
[37] = biological target: T2, human FcRn; assay: as above
[38] = biological target: T3, human FcγRIIa R allotype extracellular …; assay: SPR Biacore T200, captured Ab, pH 7.4
Protocol: as §5

[39] = biological target: T4, human FcγRIa extracellular domain with …; assay: SPR Biacore T200, captured Ab, pH 7.4
Protocol: as §5

[40] = biological target: T10, human FcγRIIIa F allotype extracellular …; assay: SPR Biacore T200, captured Ab, pH 7.4
Protocol: as §5

[41] = biological target: T5, human FcγRIIa H allotype extracellular …; assay: SPR Biacore T200, captured Ab, pH 7.4
Protocol: as §5

T7 sequence (chain, as listed by the source limits assumed): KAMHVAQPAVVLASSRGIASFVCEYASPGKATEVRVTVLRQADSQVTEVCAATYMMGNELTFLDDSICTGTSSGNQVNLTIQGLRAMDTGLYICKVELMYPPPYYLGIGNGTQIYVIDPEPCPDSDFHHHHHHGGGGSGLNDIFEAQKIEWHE
T6 sequence (P08637 17-208 F176V): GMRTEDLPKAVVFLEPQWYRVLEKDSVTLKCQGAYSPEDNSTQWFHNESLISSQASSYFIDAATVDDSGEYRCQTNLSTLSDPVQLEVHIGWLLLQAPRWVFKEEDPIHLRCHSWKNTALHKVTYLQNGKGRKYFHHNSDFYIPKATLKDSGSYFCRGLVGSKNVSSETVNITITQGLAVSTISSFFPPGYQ
T9 sequence (chain, as listed by the source limits assumed): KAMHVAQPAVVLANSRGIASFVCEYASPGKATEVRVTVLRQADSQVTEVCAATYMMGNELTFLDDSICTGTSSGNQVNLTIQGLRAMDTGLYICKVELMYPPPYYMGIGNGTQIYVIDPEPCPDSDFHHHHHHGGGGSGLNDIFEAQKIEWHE
T4 sequence (P12314 16-292): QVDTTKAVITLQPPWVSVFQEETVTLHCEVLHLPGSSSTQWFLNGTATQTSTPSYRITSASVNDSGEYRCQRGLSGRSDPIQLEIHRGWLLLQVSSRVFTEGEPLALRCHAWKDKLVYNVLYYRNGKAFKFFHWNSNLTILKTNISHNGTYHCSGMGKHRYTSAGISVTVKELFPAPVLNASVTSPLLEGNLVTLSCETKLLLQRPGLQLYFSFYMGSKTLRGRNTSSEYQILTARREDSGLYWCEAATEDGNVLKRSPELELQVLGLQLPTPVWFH
T10 sequence (P08637 17-208): as the sequence (P08637 17-208 F176V) above, with V160F counted along it

Relative binding amount [1]: 1
Kd [2]: 1300 nM
Relative value to KD between G1m and hFcγRs [3]: 1
Relative value to KD between G1m and hFcγRs [4]: 1
Relative value to KD between G1m and hFcγRs [5]: 1
Relative value to KD between G1m and hFcγRs [6]: 1
Relative value to KD between G1m and hFcRn [7]: 1
Kd [8]: 910 nM
Binding amount [9]: 0.011
Kd [10]: 1500 nM
Kd [11]: 0.045 nM
Kd [12]: 1100 nM
B1: 04H1389-G1m/04L1615-k0MT (antibody, human IgG1, kappa)
heavy: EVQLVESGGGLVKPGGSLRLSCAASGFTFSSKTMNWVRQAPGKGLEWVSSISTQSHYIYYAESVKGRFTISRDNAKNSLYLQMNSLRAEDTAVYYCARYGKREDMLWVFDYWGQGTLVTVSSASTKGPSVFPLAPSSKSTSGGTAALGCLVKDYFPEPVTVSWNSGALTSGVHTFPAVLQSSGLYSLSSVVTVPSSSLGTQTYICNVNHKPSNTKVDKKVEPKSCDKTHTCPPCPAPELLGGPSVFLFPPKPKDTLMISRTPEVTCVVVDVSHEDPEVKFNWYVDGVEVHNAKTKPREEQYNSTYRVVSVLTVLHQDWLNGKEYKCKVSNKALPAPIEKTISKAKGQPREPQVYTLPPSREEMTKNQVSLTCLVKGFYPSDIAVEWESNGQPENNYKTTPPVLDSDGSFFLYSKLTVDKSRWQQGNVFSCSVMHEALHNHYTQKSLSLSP
light: DIVMTQSPLSLPVTPGEPASISCQGPSTGVGDYNYVHWYQQKPGQAPRLLIYFTSKKPSGVPDRFSGSGSGTDFTLKISRVEAEDVGVYYCQTYAAPLGPMFGQGTKLEIKRTVAAPSVFIFPPSDEQLKSGTASVVCLLNNFYPREAKVQWKVDNALQSGNSQESVTEQDSKDSTYSLSSTLTLSKADYEKHKVYACEVTHQGLSSPVTKSFNRGEC
notes: Homodimer used for comparison; also called 04H1389-G1m/04L16150k0MT

Kd [13]: 120 nM
Kd [14]: 5300 nM
Kd [15]: 19 nM
koff [15]: 0.0014 s⁻¹
kon [15]: 71000 M⁻¹ s⁻¹
Kd [16]: 180 nM
Kd [17]: 180 nM
Kd [18]: 110 nM
Kd [19]: 19 nM
Kd [20]: 10 nM
Kd [21]: 8.1 nM
Kd [22]: 4.4 nM
Kd [23]: 27 nM
Kd [24]: 28 nM
Kd [25]: 15 nM
Kd [26]: 100 nM
koff [26]: 0.0089 s⁻¹
kon [26]: 89000 M⁻¹ s⁻¹
Kd [27]: 32 nM
koff [27]: 0.0028 s⁻¹
kon [27]: 88000 M⁻¹ s⁻¹
B2: 04H1654-G1m/04L1610-lam1 (antibody, human IgG1, lambda)
heavy: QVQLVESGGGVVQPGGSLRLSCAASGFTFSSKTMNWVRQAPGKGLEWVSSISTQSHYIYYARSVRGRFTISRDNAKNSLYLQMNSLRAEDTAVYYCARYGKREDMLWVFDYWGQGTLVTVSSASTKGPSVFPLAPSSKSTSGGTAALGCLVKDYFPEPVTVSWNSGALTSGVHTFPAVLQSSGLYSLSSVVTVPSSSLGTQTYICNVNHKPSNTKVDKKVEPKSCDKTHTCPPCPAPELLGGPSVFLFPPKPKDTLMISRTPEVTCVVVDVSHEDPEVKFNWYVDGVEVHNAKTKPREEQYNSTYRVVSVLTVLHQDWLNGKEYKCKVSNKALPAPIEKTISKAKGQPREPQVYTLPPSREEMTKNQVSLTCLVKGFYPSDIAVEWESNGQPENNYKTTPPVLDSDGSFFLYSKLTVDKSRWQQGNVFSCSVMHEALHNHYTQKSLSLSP
light: QSALTQPPSASGSPGQSVTISCEGPSTGVGDYNWVHWYQQHPGKAPKLMIYFTSKKPSGVPDRFSGSKSGNTASLTVSGLQAEDEADYYCQTYAAPLGPMFGGGTKLTVLGQPKAAPSVTLFPPSSEELQANKATLVCLISDFYPGAVTVAWKADSSPVKAGVETTTPSKQSNNKYAASSYLSLTPEQWKSHRSYSCQVTHEGSTVEKTVAPTECS

Relative binding amount [28]: 1
Kd [29]: 1700 nM
Binding amount [30]: 0.008
Kd [31]: 970 nM
Relative value to KD between G1m and hFcγRs [32]: 1
Relative value to KD between G1m and hFcγRs [33]: 1
Relative value to KD between G1m and hFcγRs [34]: 1
Relative value to KD between G1m and hFcγRs [35]: 1
Relative value to KD between G1m and hFcγRs [36]: 1
Relative value to KD between G1m and hFcRn [37]: 1
Kd [38]: 1600 nM
Kd [39]: 0.092 nM
Kd [40]: 1000 nM
Kd [41]: 1300 nM
B3: 04H1656-G1m/04L1610-lam1 (antibody, human IgG1, lambda)
heavy: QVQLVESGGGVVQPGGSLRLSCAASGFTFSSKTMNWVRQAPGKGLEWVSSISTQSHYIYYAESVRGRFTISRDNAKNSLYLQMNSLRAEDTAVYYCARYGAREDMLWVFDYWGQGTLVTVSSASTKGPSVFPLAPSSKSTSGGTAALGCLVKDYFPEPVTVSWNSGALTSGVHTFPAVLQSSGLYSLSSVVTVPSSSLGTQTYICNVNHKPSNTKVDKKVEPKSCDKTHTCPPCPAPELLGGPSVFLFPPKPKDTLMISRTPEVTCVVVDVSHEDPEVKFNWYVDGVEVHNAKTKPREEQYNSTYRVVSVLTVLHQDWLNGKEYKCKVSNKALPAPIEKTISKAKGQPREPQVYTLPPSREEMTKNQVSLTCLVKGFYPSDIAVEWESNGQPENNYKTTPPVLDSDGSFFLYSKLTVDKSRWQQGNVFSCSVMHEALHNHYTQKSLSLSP
light: QSALTQPPSASGSPGQSVTISCEGPSTGVGDYNWVHWYQQHPGKAPKLMIYFTSKKPSGVPDRFSGSKSGNTASLTVSGLQAEDEADYYCQTYAAPLGPMFGGGTKLTVLGQPKAAPSVTLFPPSSEELQANKATLVCLISDFYPGAVTVAWKADSSPVKAGVETTTPSKQSNNKYAASSYLSLTPEQWKSHRSYSCQVTHEGSTVEKTVAPTECS
